These are literature values, as cited in PMC5337525.

pKd: −log10 of the molar value.

The target of this series is calmodulin (UniProt P0DP23).

What is called pKd is −log10 of the Kd, conventionally taken in molar units. Regarding β-arrestin 1 (from UniProt P17870), the pKd was 5.15.
